Source: the supplement of paper PMC5998384

Columns and labels:
[1] = tested on: HeLa Kyoto; assay: melting temperature (median over replicates), in situ; higher = more thermally stable
[2] = tested on: HeLa Kyoto; assay: solubility change mitosis vs G1/S (difference of NP-40 vs SDS log2 ratios) (log2 ratio difference); higher = more soluble in mitosis
[3] = tested on: HeLa Kyoto; assay: thermal stability score vs G1/S (z-score of summed log2 fold changes over temperatures); higher = more thermally stable than in G1/S
[4] = tested on: HeLa Kyoto; assay: solubility in G1/S (NP-40 vs SDS abundance) (log2 ratio); higher = more soluble; conditions: cell cycle stage: G1/S
[5] = cell cycle stage: early G1 (4.5 h after nocodazole release)
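Throughout, for melting temperature (median over replicates), in situ: HeLa Kyoto cells synchronized by double thymidine or nocodazole block, proteins quantified by TMT10plex mass spectrometry, three independent biological replicates.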
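Throughout, for solubility change mitosis vs G1/S (difference of NP-40 vs SDS log2 ratios): synchronized HeLa Kyoto cells (double thymidine block for G1/S, nocodazole release for mitosis), protein amounts in NP-40 versus SDS lysates quantified by mass spectrometry, three biological replicates.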
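Throughout, for solubility in G1/S (NP-40 vs SDS abundance): HeLa Kyoto cells arrested at G1/S by double thymidine block, proteins quantified by TMT10plex mass spectrometry in mild NP-40 versus SDS extracts, three biological replicates.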
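Throughout, for thermal stability score vs G1/S (z-score of summed log2 fold changes over temperatures): synchronized HeLa Kyoto cells, proteins quantified by TMT10plex mass spectrometry, three biological replicates, mitosis taken 0.5 h after nocodazole release, G1/S directly after double thymidine block.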

| Substance | melting temperature ([1]; cell cycle stage: G1/S) [°C] | melting temperature ([1]; cell cycle stage: mitosis) [°C] | solubility change mitosis (log2) [2] | thermal stability score [3, 5] | thermal stability score ([3]; cell cycle stage: mitosis) | solubility in G1/S (log2) [4] |
| --- | --- | --- | --- | --- | --- | --- |
| MTPSQVAFEIRGTLLPGEVFAICGSCDALGNWNPQNAVALLPENDTGESMLWKATIVLSRGVSVQYRYFKGYFLEPKTIGGPCQVIVHKWETHLQPRSITPLESEIIIDDGQFGIHNGVETLDSGWLTCQTEIRLRLHYSEKPPVSITKKKLKKSRFRVKLTLEGLEEDDDDRVSPTVLHKMSNSLEISLISDNEFKCRHSQPECGYGLQPDRWTEYSIQTMEPDNLELIFDFFEEDLSEHVVQGDALPGHVGTACLLSSTIAESGKSAGILTLPIMSRNSRKTIGKVRVDYIIIKPLPGYSCDMKSSFSKYWKPRIPLDVGHRGAGNSTTTAQLAKVQENTIASLRNAASHGAAFVEFDVHLSKDFVPVVYHDLTCCLTMKKKFDADPVELFEIPVKELTFDQLQLLKLTHVTALKSKDRKESVVQEENSFSENQPFPSLKMVLESLPEDVGFNIEIKWICQQRDGMWDGNLSTYFDMNLFLDIILKTVLENSGKRRIVFSSFDADICTMVRQKQNKYPILFLTQGKSEIYPELMDLRSRTTPIAMSFAQFENLLGINVHTEDLLRNPSYIQEAKAKGLVIFCWGDDTNDPENRRKLKELGVNGLIYDRIYDWMPEQPNIFQVEQLERLKQELPELKSCLCPTVSRFVPSSLCGESDIHVDANGIDNVENA [GPCPD1] | 50 | 50.6 | -0.12 | -0.29 | -0.26 | 0.0477 |
| GMPPB | 54.3 | 54.1 | -0.108 | -1.12 | -4.14 | -0.038 |
| MLSPQRVAAAASRGADDAMESSKPGPVQVVLVQKDQHSFELDEKALASILLQDHIRDLDVVVVSVAGAFRKGKSFILDFMLRYLYSQKESGHSNWLGDPEEPLTGFSWRGGSDPETTGIQIWSEVFTVEKPGGKKVAVVLMDTQGAFDSQSTVKDCATIFALSTMTSSVQIYNLSQNIQEDDLQQLQLFTEYGRLAMDEIFQKPFQTLMFLVRDWSFPYEYSYGLQGGMAFLDKRLQVKEHQHEEIQNVRNHIHSCFSDVTCFLLPHPGLQVATSPDFDGKLKDIAGEFKEQLQALIPYVLNPSKLMEKEINGSKVTCRGLLEYFKAYIKIYQGEDLPHPKSMLQATAEANNLAAAASAKDIYYNNMEEVCGGEKPYLSPDILEEKHCEFKQLALDHFKKTKKMGGKDFSFRYQQELEEEIKELYENFCKHNGSKNVFSTFRTPAVLFTGIVALYIASGLTGFIGLEVVAQLFNCMVGLLLIALLTWGYIRYSGQYRELGGAIDFGAAYVLEQASSHIGNSTQATVRDAVVGRPSMDKKAQ [ATL3] | 52.2 | 51.7 | -0.139 | -0.0896 | 0.487 | -0.00471 |
| FOCAD | 52.9 | 52.4 | -0.121 | -1.09 | -1.91 | -0.471 |
| MAAPSGGWNGVGASLWAALLLGAVALRPAEAVSEPTTVAFDVRPGGVVHSFSHNVGPGDKYTCMFTYASQGGTNEQWQMSLGTSEDHQHFTCTIWRPQGKSYLYFTQFKAEVRGAEIEYAMAYSKAAFERESDVPLKTEEFEVTKTAVAHRPGAFKAELSKLVIVAKASRTEL [MYDGF] | 57.7 | 57.7 | -0.192 | 2.14 | 0.789 | 0.19 |
| MDFEDDYTHSACRNTYQGFNGMDRDYGPGSYGGMDRDYGHGSYGGQRSMDSYLNQSYGMDNHSGGGGGSRFGPYESYDSRSSLGGRDLYRSGYGFNEPEQSRFGGSYGGRFESSYRNSLDSFGGRNQGGSSWEAPYSRSKLRPGFMEDRGRENYSSYSSFSSPHMKPAPVGSRGRGTPAYPESTFGSRNYDAFGGPSTGRGRGRGHMGDFGSIHRPGIVVDYQNKSTNVTVAAARGIKRKMMQPFNKPSGTFIKKPKLAKPMEKISLSKSPTKTDPKNEEEEKRRIEARREKQRRRREKNSEKYGDGYRMAFTCSFCKFRTFEEKDIELHLESSSHQETLDHIQKQTKFDKVVMEFLHECMVNKFKKTSIRKQQTNNQTEVVKIIEKDVMEGVTVDDHMMKVETVHCSACSVYIPALHSSVQQHLKSPDHIKGKQAYKEQIKRESVLTATSILNNPIVKARYERFVKGENPFEIQDHSQDQQIEGDEEDEEKIDEPIEEEEDEDEEEEAEEVGEVEEVEEVEEVREGGIEGEGNIQGVGEGGEVGVVGEVEGVGEVEEVEELEEETAKEEPADFPVEQPEEN [ZNF326] | 47 | 49.1 | 0.239 | 3.18 | 7.29 | -0.456 |
